According to patent US20210388097A1 (SORRENTO THERAPEUTICS, published 2021):
Positions count from the first letter of the chain named.

B1: Mutant-2 human BCMA protein-mouse Fc (Fc fusion)
chain: MLQMAGQCSQNEYFDSLLHACIPCQLRCSSNPPGTCQRYCNASVTNSVKGTNAGLGGLVDYKDDDDKTHTCPPCKCPAPNLLGGPSVFIFPPKIKDVLMISLSPIVTCVVVDVSEDDPDVQISWFVNNVEVHTAQTQTHREDYNSTLRVVSALPIQHQDWMSGKEFKCKVNNKDLPAPIERTISKPKGSVRAPQVYVLPPPEEEMTKKQVTLTCMVTDFMPEDIYVEWTNNGKTELNYKNTEPVLDSDGSYFMYSKLRVEKKNWVERNSYSCSVVHEGLHNHHTTKSFSRTPGK
notes: also called mutant-2 human BCMA-mouse Fc (del32-35G); mutant-2 BCMA protein
B2: Bluebird C11D5 antibody (BB anti-BCMA Ab) (antibody, V domains shown)
VH: QIQLVQSGPELKKPGETVKISCKASGYTFTDYSINWVKRAPGKGLKWMGWINTETREPAYAYDFRGRFAFSLETSASTAYLQINNLKYEDTATYFCALDYSYAMDYWGQGTTLTVSS
VL: DIVLTQSPASLAMSLGKRATISCRASESVSVIGAHLIHWYQQKPGQPPKLLIYLASNLETGVPARFSGSGSGTDFTLTIDPVEEDDVAIYSCLQSRIFPRTFGGGTKLEIK
notes: Comparator anti-BCMA antibody; also called BB C11D5; Bluebird antibody
B3: GSK J6M0 antibody (GSK anti-BCMA Ab) (antibody, V domains shown)
VH: QVQLVQSGAEVKKPGSSVKVSCKASGGTFSNYWMHWVRQAPGQGLEWMGATYRGHSDTYYNQKFKGRVTITADKSTSTAYMELSSLRSEDTAVYYCARGAIYDGYDVLDNWGQGTLVTVSS
VL: DIQMTQSPSSLSASVGDRVTITCSASQDISNYLNWYQQKPGKAPKLLIYYTSNLHSGVPSRFSGSGSGTDFTLTISSLQPEDFATYYCQQYRKLPWTFGQGTKLEIK
notes: Comparator anti-BCMA antibody; captured by anti-human Fc in SPR, so it carries a human Fc; also called GSK antibody

Assays:
[1] = target: T1, human APRIL protein (R&D Systems, catalog #5860-AP-010/CF) (human, UniProt O75888 105-250, limits assumed); test: bio-layer interferometry, APRIL on AR2G sensor, BCMA-mouse Fc at 2.5 µg/mL
T1 construct: Bought protein; also called human APRIL protein from R&D Systems; TNF13
T1 sequence (looked up): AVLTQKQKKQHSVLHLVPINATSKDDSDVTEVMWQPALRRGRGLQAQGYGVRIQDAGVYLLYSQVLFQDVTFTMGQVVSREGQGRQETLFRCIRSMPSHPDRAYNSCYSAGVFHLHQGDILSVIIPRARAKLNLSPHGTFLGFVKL
Experimental: Bio-layer interferometry was also used to measure binding between APRIL protein, and wild type or mutant BCMA proteins. Human APRIL protein (R&D Systems, catalog #5860-AP-010/CF) was loaded onto an Ar2G sensor (OctetRET96e) and reacted with 2.5 μg/mL of one of three types of human BCMA proteins including: wild type human BCMA-mouse Fc (SEQ ID NO:5), mutant-1 human BCMA-mouse Fc (17G-18G; SEQ ID NO:6), or mutant-2 human BCMA-mouse Fc (de132-35G; SEQ ID NO:7).

[2] = target: T2, his-tagged mouse BCMA protein (ACROBiosystems, catalog # BCA-M52H3) (mouse, UniProt O88472 1-49); test: ELISA, his-tagged BCMA on Ni-NTA plate at 2 µg/mL, anti-human Fc HRP
T2 construct: Bought protein; not shown: his tag
T2 chain (looked up): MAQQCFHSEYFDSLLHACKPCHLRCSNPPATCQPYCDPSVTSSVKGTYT
Experimental: Cross-reactivity of the anti-BCMA antibodies with his-tagged BCMA protein from human, cynomolgus or mouse, were analyzed by ELISA assay. The Ni-NTA plate was coated with his-tagged BCMA proteins (listed in Example 2 above) at 2 μg/mL, then reacted with an anti-BCMA antibody at 20 μg/mL, and reacted with anti-human Fc HRP (KPL Scientific, catalog #5220-0279) at 1:2500 dilution. […] Each set includes 5 test antigens or buffer, from left to right: negative control antigen, his-tagged mouse BCMA protein, his-tagged cynomolgus BCMA protein, his-tagged human BCMA protein, and Dulbecco's Phosphate-Buffered Saline.

[3] = target: T3, human BAFFR/TNFRSF13C (CD268) Fc tag, from Sino Biological (human, UniProt Q96RJ3 1-71, limits assumed); test: bio-layer interferometry, antibody coupled to AR2G sensor, BAFFR in solution
T3 construct: Bought protein; not shown: Fc tag
T3 sequence (looked up): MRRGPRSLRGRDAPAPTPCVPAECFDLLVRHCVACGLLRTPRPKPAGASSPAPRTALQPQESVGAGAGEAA
Experimental: (§1) Bio-layer interferometry was used to measure cross-binding between (1) two different anti-BCMA antibodies (BCA7-2C5 or BB C11D5) or a control isotype, and (2) various human antigens including TACI and BAFFR.
(§2) Immobilization of antibody was achieved through standard EDC-catalyzed amide bond formation to create a covalent bond between a reactive amine on the protein and the carboxy-terminated biosensor surface. Briefly, AR2G sensors (OctetRED96e from ForteBio) were activated by EDC-NHS for 6 minutes, then 5 ug/ml antibodies were loaded (BCA7-2C5 antibody, Bluebird C11D5 chimeric antibody, or a human IgG isotype antibody) in 10 mM acetate buffer pH 5.0 for 6 minutes, followed by quenching for 6 minutes with 1M ethanolamine pH 8.5. The 3 minutes baseline step removed any unbound antibody from the biosensor, followed by 1.5 minutes each for association of three analyte proteins TACI (human TACI/TNFRSF13B (CD267) His-tag, from Sino Biological, 1 ug/mL in PBS), BAFFR (human BAFFR/TNFRSF13C (CD268) Fc tag) from Sino Biological, 2 ug/mL in PBS), and human BCMA protein (in-house made with mouse Fc, 2 ug/mL in PBS).

[4] = target: T4, Wild type human BCMA protein-mouse Fc (human); test: bio-layer interferometry, antibody (100 nM) loaded on AR2G sensor, BCMA-mouse Fc in solution
T4 construct: also called wild type human BCMA-mouse Fc; wild type BCMA protein
T4 chain: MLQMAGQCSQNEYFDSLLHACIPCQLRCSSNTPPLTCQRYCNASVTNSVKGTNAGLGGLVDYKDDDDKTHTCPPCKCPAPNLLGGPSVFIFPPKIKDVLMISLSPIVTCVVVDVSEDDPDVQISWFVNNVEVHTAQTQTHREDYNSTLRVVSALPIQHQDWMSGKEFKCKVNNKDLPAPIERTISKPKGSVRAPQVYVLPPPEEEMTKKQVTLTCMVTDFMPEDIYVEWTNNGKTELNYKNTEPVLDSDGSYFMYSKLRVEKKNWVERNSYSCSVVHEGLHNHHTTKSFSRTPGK
Experimental: (§3) The results of the protein-protein binding assays described in Example 8 were used to design an epitope mapping assay using bio-layer interferometry. Various anti-BCMA antibodies (2C5, 2E1, 4C9, 6G8, Bluebird C11D5, GSK J6M0, or isotype control) (100 nM) were loaded onto AR2G sensors and reacted with buffer or one of three types of human BCMA proteins including: including: wild type human BCMA-mouse Fc (SEQ ID NO:5), mutant-1 human BCMA-mouse Fc (double mutation 17G-18G; SEQ ID NO:6), or mutant-2 human BCMA-mouse Fc (mutation del32-35G; SEQ ID NO:7).

[5] = target: B1; test: as above
Experimental: as §3

[6] = target: T5, Mutant-1 human BCMA protein-mouse Fc (human); test: as above
T5 construct: also called mutant-1 human BCMA-mouse Fc (17G-18G); mutant-1 BCMA protein
T5 chain: T4 chain with L17G, L18G
Experimental: as §3

BCMA on MM1R cells = target: T6, BCMA on MM1R cells (human, UniProt Q02223); test: flow cytometry on MM1R cells, 5x serial dilution, FITC goat anti-human IgG F(ab')2, GeoMean BL1-H
T6 construct: full length, on the surface of MM1R multiple myeloma cells; also called MM1R multiple myeloma cell line
T6 sequence (receptor, looked up): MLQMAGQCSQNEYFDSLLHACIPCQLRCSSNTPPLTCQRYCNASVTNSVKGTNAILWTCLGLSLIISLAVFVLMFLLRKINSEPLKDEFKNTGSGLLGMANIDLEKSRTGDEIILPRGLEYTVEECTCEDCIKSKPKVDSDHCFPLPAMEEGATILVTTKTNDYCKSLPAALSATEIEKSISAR
Excerpt: Flow cytometry was used to test antibody binding to multiple myeloma cell line MM1R, using various anti-BCMA antibodies (5× serial dilution) and 80,000 cells per well. The secondary antibody was FITC AffiniPure FAB2 fragment goat anti-human IgG (H+L) (from Jackson Immuno Research). […] A BL-1 detector (IntelliCyt iQue Screener Plus) which detects at 530 nm was used. The geometric mean is reported.

[7] = target: T7, his-tagged human BCMA protein (ACROBiosystems, catalog # BCA-H522y-100 ug) (human, UniProt Q02223 1-54); test: ELISA, his-tagged BCMA on Ni-NTA plate at 2 µg/mL, antibody at 20 µg/mL
T7 construct: limits of the bought construct are not otherwise stated; also called recombinant his-tagged human BCMA; not shown: his tag of the bought protein
T7 sequence: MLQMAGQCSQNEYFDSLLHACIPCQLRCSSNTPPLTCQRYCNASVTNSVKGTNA

[8] = target: T8, human TACI/TNFRSF13B (CD267) His-tag, from Sino Biological (human, UniProt O14836 1-166, limits assumed); test: bio-layer interferometry, antibody coupled to AR2G sensor, TACI in solution
T8 construct: Bought protein; not shown: His-tag
T8 sequence (looked up): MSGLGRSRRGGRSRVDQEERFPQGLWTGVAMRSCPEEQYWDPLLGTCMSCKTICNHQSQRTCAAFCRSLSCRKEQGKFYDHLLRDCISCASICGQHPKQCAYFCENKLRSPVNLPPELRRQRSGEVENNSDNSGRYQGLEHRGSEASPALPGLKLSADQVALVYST
Experimental: as §1, §2

[9] = target: T7, his-tagged human BCMA protein …; test: SPR (Biacore T200, 25 C), antibody captured on anti-human Fc, his-tagged human BCMA as analyte, 1:1 binding model
Experimental: Binding kinetics of anti-BCMA antibodies with his-tagged human BCMA protein (ACROBiosystems, catalog # BCA-H522y-100 ug, UniProt Q02223-1, SEQ ID NO:92) was measured using surface plasmon resonance (SPR). Kinetic interactions between the antibodies and his-tagged BCMA proteins were measured at 25° C. using Biacore T200 surface plasmon resonance (GE Healthcare). Anti-human fragment crystallizable region (Fc region) antibody was immobilized on a CM5 sensor chip to approximately 8000 resonance units (RU) using standard N-hydroxysuccinimide/N-Ethyl-N′-(3-dimethylaminopropyl) carbodiimide hydrochloride (NHS/EDC) coupling methodology. The anti-BCMA antibody (2 μg/mL) was captured for 60 seconds at a flow rate of 10 μL/minute. The his-tagged BCMA protein was run at six different dilutions of 3.12, 6.25, 12.5, 25, 50, 100 and 200 nM, in a running buffer of 0.01 M HEPES pH 7.4, 0.15 M NaCl, 3 mM EDTA, 0.05% v/v Surfactant P20 (HBS-EP+). The 25 nM BCMA protein run was measured two times. All measurements were conducted in HBS-EP+ buffer with a flow rate of 30 μL/minute. A 1:1 (Langmuir) binding model was used to fit the data. The SPR sensorgrams of anti-BCMA antibodies BCA7, GSK J6M0, BC4C9 and BC5C4 are shown in FIGS. 1, 2, 3 and 4, respectively, and their corresponding binding kinetics are listed in Table 3.

Binder | binding result [1] | binding result [2] | binding result [3] | binding result [4] | binding result [5] | binding result [6] | binding result (BCMA on MM1R cells) | binding result [7] | binding result [8] | Kd [9] [nM] | koff [9] [s⁻¹] | kon [9] [M⁻¹ s⁻¹]
B1 | binds |  |  |  |  |  |  |  |  |  |  | 
B2 |  | no binding (tested: 20 µg/mL) | no binding (tested: 2 ug/mL) | binds | binds | binds | binds | binds | no binding (tested: 1 ug/mL) |  |  | 
B3 |  | no binding (tested: 20 µg/mL) |  | binds |  | binds |  |  |  | 2.52 | 0.000496 | 197000
